Test results published in the nanobody polyreactivity screen of Harvey et al. (2022).

experiment: yeast display, Sf9 membrane polyspecificity reagent, FACS + sequencing; frameworks hold sequencing errors
Procedure, shortened: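 Nanobodies came from a synthetic yeast display library in Saccharomyces cerevisiae BJ5465, induced with galactose for 36–48 hours and stained for 1 hour at 4 °C with 10% biotinylated, detergent-solubilized Sf9 membrane reagent. Cells were enriched on streptavidin microbeads and then FACS-sorted, with low and high (top ~1%) gates set on anti-HA fluorescence for expression and streptavidin fluorescence for reagent binding. Each polyreactivity label reflects the gate a clone came from. Genes were amplified by colony PCR, sequenced by MiSeq 2 × 250 and filtered by CDR length.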

| Sequence | polyreactivity (PSR sort gate) |
| --- | --- |
| QVQLVESGGGLVQAGGSLRLSCAASGSIFYSYVMGWYRQAPGKERELVAAISRNGQSTYYADSVKGRFTISRDNAKNTVYLQMNSLKPEDTAVYYCATRGTKSIKDVPGIRYGYWGQGTQVTVSS | high polyreactivity |
| QVQLVESGGGLVKAGAILRLSCPASGSTFQSYAKGWSRQEPGKESELVAAISSGGITYYADSVKGRFTISRDNAKNTVYFQMNSLKPEDTAVYYCAKVPTYLISNRYSRYDYWGQGTQVTVSS | low polyreactivity |
| QVQLVESGGGLVQAGASLRLSCAASGITFYSYGMGWYRQAPGKERELVAAISGSGTTTYADSVKGRFTISRDNAKNPVYLQMNSLKPEDTAVYYCAAVARYPRWHHYYWGQGTQVTVSS | low polyreactivity |
| QVQLVESGGGLVLAGGSLRLSCAASGRIFIGNAMGWYRQAPGKERELVAAISKRGGSTYYADSVKGRFTISRDNAKNTVYLQMISLKPEDTAVYYCNKEPLYREFDYWGQGTQVTVSS | low polyreactivity |
| QVQHVESGGALVQAGGSLRLSCAASGSIFGDYAMGWYRQAPGKERELVAAITSDRDTYYADSVKGRFTISRDNAKNTVYLQMNSLKPEDTAVYYCNATYGGPYFIQYDYWGQGTQVTVSS | low polyreactivity |
| QVQLVESGGGIVQAGGSLRLSCAASGFTFGSYAMGWYRQAPGKEREFVAAIRRSGSSTYYADSVKGRFTISRDNAKNTVYLQMNSLKPEDTAVYYCAADVYRRLRRYRYYYWGQGTQVTVSS | low polyreactivity |
| QVQLVESWGGLVQAGGSLRLSCAASGSTLYQYDMGWYRHAPGKEREYLAAITTYGDSTYYADSVKGRFTISRDNAKNTVYLQMNSLKPEDTAVYYCNADVFKTVFYIDRYYYWGQGTQVTVSS | low polyreactivity |
| QVQLVESGGGLVQAGGSLRLSCPASGSISYFNAMGGYRQAPGKERELVAAITSCGSTYYADSVKGRFTISRDNAKNSVYLQMNSLKPEDTAVYYCAADDSWFYYGYGYWGQGTQVTVSS | low polyreactivity |
| QVLLQESGGGLVQAGGSLRLSCAASGNIFSAGGMGWSRQAPVNERELVAGIGTGTSTNYADSVKGRFTISRDNSKNTVYLQMNSLTPEDTAVYYCAAAYYSGLSHWYWGQGTQVTVSS | low polyreactivity |
| QVQLVESGGGLVQAGGSLRLSCAASGFTFVTNAMGWYRQAPGKERELVAAISRRGGSTYYADSVKGRFTISRDIAKNTVNLEMNSLKPEDTAVYYCNADRQRRRQFSFSSPYDYWGQGTLVTVSS | high polyreactivity |
| QVQLVESGGGLVQAGGSHRLSCAASGRTFYAYAMGWYRQAPGKERELVAANRYSGGRTYYADSVKGRFTISRDNAKNTVYLQMNSLKPEDTGVYYCAREWSRGSYVDYDYWGQGTQVTVSS | high polyreactivity |
| QVQLVESGGGLVQAGGSLRLSCAASGRIFDYYAMGWNRQAPGKERELVAAITWSGGNTYYADSVKGRFTISRDNAKNTVYLQMNSLKPEDTAVYYCAAEYYYLNDIYSEYDYWGQGTQVTVSS | high polyreactivity |
| QVQLVESGGCLVQAGGSLRLSCAASGLIFRKYARGWSRQAPGKERELVAAISVSGGSTYYADSVKGRFTISRDNAKNTVYLQMNSLKPEDTAVYYCAATDFGRRGGSFYYWGQGTQVTVSS | high polyreactivity |
| QVQLVESGGGLVQAGGSLRLSCAASGRIFRSNAMGWYRQAPGKERELVAAINNRDTSTYADSVKGRFTISRDNAKNTVYLQMNSLKPEDTAVYYCAARYQYYSTYGVTLDYWGQGTQVTVSS | low polyreactivity |
| QVQLVESGGGLVQAGGSLRLSCAASGSTFPSYAMGWYRQAPGKERELVAAISRRSSRTYYADSVKGRFTISRDNAKNTVYLQMNSLKPEDTAVYYCNADAGRHSDEYGYDYWGQGTQVTVSS | high polyreactivity |
| QVQLVESGGGLVQAGGSLRLSCAASGLTFSRYAMGWYRQAPGTERELVAVISRSGGSTYYADSVKGRFTISRDNAKNTVYLQMNSLIPEDTAVYYCAVRAYIKMDYWGQGTQVTVSS | high polyreactivity |
| QVQLVESGGGLVQAGGSLRLSCAASGSNFPHNAMGWYRQAPGKERELVAAITSSGGSTYYADSVKGRFTISRDNAKNTVYLQMNSLKPEDTAVYYCNKGKQRRRYNYWGQGTQVTVSS | high polyreactivity |
| QVQLVESGGGLVQAGGSLRLSCAASGYTFPRYTMGWYRQAPGKERELVAAINWSGGSTYYADSVKGRFTISRDNAKNTVYLQMNSLKPEDTAVYYCNKAYVSRYDYWGQGTQVTVSS | high polyreactivity |
| QVQLVESRGGLVQAGGSLRLSCAASGRIFSNNAMGCYRQAPGKERELVAAITASSGSTYYADSVKGRFTISRDNAKNTVYLQMNSLKPEDTAVYYCAATLRWGFRWYFGFDYWGQGTQLTVSS | high polyreactivity |
| QVQLVESGGGLVQAGGSLRLSCAASGRIISRNAMGWYRQAPGKERELVAAISGSGSRTFYADSVKGRFTISRDNAKNTVYLQMNSLKPEDTAVYYCAADRSSYSRFYYWGQGTQVTVSS | high polyreactivity |

| Sequence | polyreactivity (PSR sort gate) |
| --- | --- |
| QVQLVESGGGLVQAGGSLRLSCAASGRIFLRNAMGWYRQAPGKERELVATITSRGGSTYYADAVKGRFTISRDNAKNTVYLQMNSLKPVDTEVYDCAADPRRYRGFGYVYGGFYYWGQGTQVTVSS | low polyreactivity |
| QVQLVESGGGLVQAGGSLRLSCAASGSIFGFNAMGWYRQAPGKERELVAAINNGGSTNYADSVKGRFTISRDNAKNTVYLQMNSLKPEDTAVYYCAVGTLTYEGFRTYYYWGQGTQVTVSS | high polyreactivity |
| QVQLVESGGGLVQAGGSLRLSCAASGSTFYYYGMGWYRQAPGKESALVAAISSSGGNTYYADSVKGRFTISRDNAKNTVYLQMNSLKPEDTAVYYCARGGHRGYWGQGTQVTVSS | low polyreactivity |
| QVQLVESGGGLVQAGGSLRLSCAASGRIFFVNAMGWSRQAPGKERELVAAISRGGSTNYADSVKGRFTISRDNAKNTVYLQMNSLKPEDTAVYYCNADGSSYWYPVPLDGGDYWGQGTQVTVSS | low polyreactivity |
| QVQLVESGGGLVQAGGSLRLSCAASGRIFVNYAMGWYRQEPGKERELVAAITSDGSTSYADSVKGRFTISRDTAKNTVYLQMNSLKPDDPAVYYCAKDFFEHSPVSHTYSSSKYDYWGEGTQVTVSS | low polyreactivity |
| QVQLVESGGGLVQAGGSLRLSCAASGFIYFGNAMGWYRQAPGKERELVAAINSNGSSTYYADSVKGRFTISRDNAKNTVYFLMNSLQPEDTAVYYCAKKISVHEGAWPSNPDGDYWGQGTQVTVSS | low polyreactivity |
| QDQLVESGGGLVQAGGSLRISCAASGSTFPLYAMGWYRQAPGKEMEFVAAIRWIGGSTYYADSVKGRFTISRDNAMNTVYLQMNSLKPEDTAVYYCAADYVVSAFDYWGQGTQVTVSS | low polyreactivity |
| QVQLVESGGGLVQAGGSLRLSCAASGSIFYRYTMGWYRQAPGKERELVAVISRRGGSTYYADSVKGRFTISRDNAKNTVYLQMNSLKPEDTAVYYCAVRQYRTSVRQGNTLWDDYWGQGTQVTVSS | high polyreactivity |
| QVQLVESGGGLVQAGGSLRLSCAASGSTLRPYGMGWYRQAPGKERELVATIRSSSGRTYYADSVKGRFTISRDNAKTTVYLQMTSLKPEDTAVYYCARRYITNIKYDYWGQGTQVTVSS | high polyreactivity |
| QVQLVESGGGLVQAGGSLRLSCAASGSIFAGNAMGWYRQAPGKERELVAGITFGDDSTYYADSVKGRFTISRDNAKNTVYLQMNSLKPEDTAVYYCATDLHPYNYYFYHYWVDAAYDYWGQGTQVTVSS | low polyreactivity |
| QVQLVESGGGLVQAGGSLRLSCAASGSTFYTNAMGWYRQAPGTERELVAAINYSGGSTYYADSVKGRFTISRDNAKNTVYLQMNSQTPEDTAVYYCATDLHWLVTKYGYWGQGTQVTVSS | low polyreactivity |
| QVQLVESGGGLVQAGGSLRLSCAASGSTFLDYAMGWYRQAPGQERELVAAITSVGGTYADSVKGRFTISRDKAKNTVYLQKNSLKPEDTAGYYCAADADFWYYVVHRGSTFDYSGQGTQVTVSS | low polyreactivity |
| QVQLVESCGGLVQAGGSLRLSFAASGSILVRYAMGWYRQAPGKERELVAAITSGGSTYADSVKGRFTISRDNAKNTVYLQMNSLKPEDTAVYYCAADAYGYGGDSWGQGTLVTVSS | low polyreactivity |
| QVQLVESGGGLVQAGGSLRLSCAASGSIFSFYAVGWYRQAPGKERELVAALSSGGSTYYADSVKGRFTISGDNAKNTVYLQMNSLIPEDTAVYYCAADPYRYNFRAYGWYREGYYWGQGTQVTVSS | low polyreactivity |
| QVQLVESGGGLVQAGGSLRLSCAASGSIFYIYAMGWYRQAHGKERELVAAISSGGATYADSVKGRFTISRDNAKNTVYLQMNSLKPEDTAVYYFAVDRAFRAQNYHEYDYWGQGTQVTVSS | low polyreactivity |
| QVQLVESGGGLVQAGGSLRLSCAASGRIFARYAMGWYRQAPWKERELVADITTGGSTDYADSVKGRFTISRDNAKNTVYLQMNSLKPEDTAVYYCAKDHHPPGKGQSVSLGYDYWGQGTQVTVSS | low polyreactivity |
| QVQLVESGGGLVQAGGSLRLSCAASGRTFDDYAKGWYRQAPGKETEFVAAITRSGGGTHYADSVKGRFTISRDNAKNTVYLQMNSLKPEDTAVYYCAARAHGTYVRRRYDYWGQGTQVTVSS | high polyreactivity |
| QVQLVESGGGLVQAGGSLRLSCAASGFTLFFHAMGWYRQAPGKERELVATISERGDSTYYADSVKGRFTISRDNAKNTVYLQMNSLKPEDTAVYYCAAVGTYSSYGYWGQGTQVTVSS | high polyreactivity |
| QVQLVESGGGLVQAGRSLRLSCAASGYTFSRYTMGWYRQAPGKEWELVAAISSSGGSTYADSVKGRFTISRDNAKNTVYLQMTSLKPEDTGVYYCNRYYRRATKVGDWGQGTQVTVSS | high polyreactivity |
| QVQLVESGGGLVQAGGSLRLSCDASGIIFKKYAMGWNRQAPGKERELVAVITRGGSTNYADSVKGRFTISRDNAKNTVYLQMNSLKPEDTAVYYCNADSGSYHGWYGGDYGGQGTQVTVSS | low polyreactivity |
